This test addresses T1, endogenous IRF3 of HEK293T cells (human (endogenous in HEK293T)), Q14653.
T1 chain: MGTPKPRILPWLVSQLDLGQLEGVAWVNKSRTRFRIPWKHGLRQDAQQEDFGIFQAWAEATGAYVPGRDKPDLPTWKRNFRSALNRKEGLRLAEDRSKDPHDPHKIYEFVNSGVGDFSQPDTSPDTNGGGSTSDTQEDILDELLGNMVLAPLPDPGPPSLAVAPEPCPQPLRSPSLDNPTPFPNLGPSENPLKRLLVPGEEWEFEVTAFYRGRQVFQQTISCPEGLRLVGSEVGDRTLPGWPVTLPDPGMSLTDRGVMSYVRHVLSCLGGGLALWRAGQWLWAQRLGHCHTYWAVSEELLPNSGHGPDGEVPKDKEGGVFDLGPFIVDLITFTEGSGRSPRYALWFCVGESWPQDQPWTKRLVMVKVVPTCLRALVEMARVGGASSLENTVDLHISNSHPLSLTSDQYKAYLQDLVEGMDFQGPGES
The experiment in a line: native gel or EMSA; IRF3 dimer gel: lysate of HEK293T transfected 36 h with or without MDA5 and VP3; native PAGE, 25 mM Tris-HCl, 192 mM glycine, pH 8.4, 1% deoxycholate in the cathode chamber; blot with anti-IRF3. Particulars: remark: other sources report otherwise.

One molecule from PMC8125067 can be followed below.

B1: endogenous IRF3 of HEK293T cells, Q14653 1-427 (natural protein)
chain: T1 chain
In turn, B1 returned a stoichiometry N of 2.
